From article PMC7001585 (Proteins, 2017)

Molecular target: the molecule itself
Assay: crystal structure

B1: CepR2 ligand binding domain (CepR2-LBD, 1-170) (domain or fragment)
chain: SNAMDLTILHDCFDALQRAPTAEAAFPPIAAAAAALGFRYCVYGLRRTLPLARPDMQIVGNHPREWEHRYVKFGYVTIDPIIKRVASQPRPVVWNAFDEPGDTAFWHDAACFGMRYGWSHGGYDRAGNLGVLTLVRDTTPLDADEISRLRAPCASLSHAAHAYLMPRLADPIA
modifications: selenomethionine (SeMet-substituted protein; SeMet53 named)
- stoichiometry N: 2
